Data taken from US20120283184A1 (published 2012).

Target: T1, human vascular endothelial growth factor receptor-2 Fc chimera (KDR-Fc) (human, UniProt P35968 20-764)
T1 construct: range 1-764; Purchased from R&D Systems; also called hKDR; human VEGF-R2-Fc; not shown: human IgG1 Fc
Experiment: radioactive equilibrium binding, 1 nM KDR-Fc
Protocol: (§1) To prepare ³⁵S-labeled binding proteins for analysis, mRNA was prepared as described above for RNA-protein fusion production but the linker ligation step was omitted. The mRNA was expressed using rabbit reticulocyte lysate translation kit (Ambion) in the presence of ³⁵S-labeled Met at 30° C. for 1 hour. Expressed protein was purified on M2-agarose Flag beads (Sigma) as described above. This procedure produced the encoded protein without the nucleic acid tail. In a direct binding assay, VEGF-R2-Fc fusions in concentrations ranging from 0 to 200 nM were added to a constant concentration of the purified protein (0.2 or 0.5 nM) and incubated at 30° C. for 1 hour in buffer B. The receptor-binder complexes were captured using Protein A magnetic beads for another 10 minutes at room temperature using a Kingfisher™ The beads were washed with six reaction volumes of buffer B. The protein was eluted from the beads with 100 μL of 0.1 M KOH. 50 μL of the reaction mixture and elution were dried onto a LumaPlate-96 (Packard) and the amount of ³⁵S on the plate was measured using a TopCount NXT instrument (Packard). The amount of fibronectin-based scaffold protein bound to the target was estimated as a percent of radioactivity eluted from Protein A magnetic beads compare to radioactivity in the reaction mixture. Nonspecific binding of fibronectin-based scaffold proteins to the beads was determined by measuring binding in the absence of KDR-Fc and represented less than 1-2% of the input. Specific binding was obtained through subtraction of nonspecific binding from total binding. Data was analyzed using the GraphPad Prizm software (GraphPad Software, Inc, San Diego, Calif.), fitted using a one site, non-linear binding equation.
T1 sequence (P35968 20-764 limits assumed, change not shown, form in doubt): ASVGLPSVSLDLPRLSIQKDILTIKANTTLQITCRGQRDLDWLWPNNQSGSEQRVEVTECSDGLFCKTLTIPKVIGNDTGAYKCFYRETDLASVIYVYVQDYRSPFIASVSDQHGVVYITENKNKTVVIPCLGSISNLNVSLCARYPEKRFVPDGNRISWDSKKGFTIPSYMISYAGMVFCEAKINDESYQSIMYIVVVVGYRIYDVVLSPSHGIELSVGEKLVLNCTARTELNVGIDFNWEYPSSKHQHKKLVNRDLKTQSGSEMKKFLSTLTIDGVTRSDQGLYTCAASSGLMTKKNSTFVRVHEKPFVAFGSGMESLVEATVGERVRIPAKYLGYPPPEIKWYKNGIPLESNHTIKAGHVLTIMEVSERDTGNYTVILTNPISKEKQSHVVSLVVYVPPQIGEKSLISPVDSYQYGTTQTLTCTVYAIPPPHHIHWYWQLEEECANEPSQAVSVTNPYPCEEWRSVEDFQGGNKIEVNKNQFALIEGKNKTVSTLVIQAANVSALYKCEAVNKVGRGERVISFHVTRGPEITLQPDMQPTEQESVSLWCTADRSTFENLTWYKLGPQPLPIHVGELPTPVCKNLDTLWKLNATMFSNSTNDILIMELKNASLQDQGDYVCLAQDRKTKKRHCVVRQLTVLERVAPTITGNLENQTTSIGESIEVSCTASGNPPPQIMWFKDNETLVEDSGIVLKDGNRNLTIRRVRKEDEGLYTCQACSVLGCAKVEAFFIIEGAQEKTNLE

| Binder | Binding to 1 nM KDR, % |
| --- | --- |
| 1′DelA4 PR4 (designed binder, in vitro translated) EVVAATPTSLLISWRHPHFPTRYYRITYGETGGNSPVQEFTVPLQPPTATISGLKPGVDYTITGYAVTVAQNDHELFTPISINYRT | 13% |
| 1′DelD3 PR4 (designed binder, in vitro translated) EVVAATPTSLLISWRHPHFPTRYYRITYGETGGNSPVQEFTVPLQPPTATISGLKPGVDYTITVYAVTLAQNNHELITPISINYRT | 12% |
| 1′DelC6 PR4 (designed binder, in vitro translated) EVVAATPTSLLISWRHPHFPTRYYRITYGETGGNSPVQEFTVPLQPPTATISGLKPGVDYTITVYAVTVAQNEHELLTPISINYRT | 12% |
| 1′DelC5 PR4 (designed binder, in vitro translated) EVVAATPTSLLISWRHPHFPTRYYRITYGETGGNSPVQEFTVPLQPPTATISGLKPGVDYTITVYAVTLAQNDHEIMTPISINYRT | 11% |

Second part, the binder after the results:

| Binding to 1 nM KDR, % | Binder |
| --- | --- |
| 11% | 1′DelB10 PR4 (designed binder, in vitro translated) EVVAATPTSLLISWRHPHFPTRYYRITYGETGGNSPVQEFTVPLQPPTATISGLKPGVDYTITVYAVTVARNDHELMTPISINYRT |
| 10% | 1′DelG9 PR4 (designed binder, in vitro translated) EVVAATPTSLLISWRHPHFPTRYYRITYGETGGNSPVQEFTVPLQPPTATISGLKPGVDYTITVYAVTVAQSDHELMTPISINYRT |

Target: T2, human vascular endothelial growth factor receptor-2 Fc chimera (KDR-Fc) (human, UniProt P35968 20-764)
T2 construct: range 1-764; also called human VEGFR-2; not shown: human IgG1 Fc
Experiment: radioactive equilibrium binding, 1 nM KDR-Fc, % of input
Protocol: as §1
T2 sequence (P35968 20-764 limits assumed, change not shown, form in doubt): as the sequence (P35968 20-764 limits assumed, change not shown, form in doubt) above

| Binder | Binding to 1 nM KDR, % |
| --- | --- |
| 2′E4-PR4 (designed binder) VSDVPRDLEVVAATPTSLLISWRHPHFPTRYYRITYGETGGNSPVQEFTVPLQPPTATISGLKPGVDYTITVYAVTVHWNGHELMTPISINYRT | 22% |
| 2′H4-PR4 (designed binder) VSDVPRDLEVVAATPTSLLISWRHPHFPTRYYRITYGETGGNSPVQEFTVPLQPPTATISGLKPGVDYTITVYAVTVGPNERMLMTPISINYRT | 17% |
| 3′H11 PR4 (designed binder) EVVAATPTSLLISWRHPHFPTRYYRITYGETGGNSPVQEFTVPLQPPTATISGLKPGVDYTITVYAVTLAHNGNELLTPISINYRT | 39% |
| 4′G4 PR4 (designed binder) EVVAATPTSLLISWRHPHFPTRYYRITYGETGGNSPVQEFTVPLQPPTATISGLKPGVDYTITVYAVTVAQNDRELLTPISINYRT | 19% |
| 4′D8 PR4 (designed binder) EVVAATPTSLLISWRHPHFPTRYYRITYGETGGNSPVQEFTVPLQPPTATISGLKPGVDYTITVYAVTLAQNGHELYTPISINYRT | 26% |
| 3′H3 PR4 (designed binder) EVVAATPTSLLISWRHPHFPTRYYRITYGETGGNSPVQEFTVPLQPPTATISGLKPGVDYTITVYAVTLGLNDRELMTPISINYRT | 36% |
| 4H5 PR3 (designed binder) EVVAATPTSLLISWRHPHFPTRYYRITYGETGGNSPVQEFTVPLQPPTATISGLKPGVDYTITVYAVTVAQNGHELITPISINYRT | 14% |
| 4F4 PR3 (designed binder) EVVAATPTSLLISWRHPHFPTRYYRITYGETGGNSPVQEFTVPLQPPTATISGLKPGVDYTITVYAVTLAQNDRELITPISINYRT | 15% |
| 4C9 PR3 (designed binder) EVVAATPTSLLISWRHPHFPTRYYRITYGETGGNSPVQEFTVPLQPPTATISGLKPGVDYTITVYAVTLAQNDHELLTPISINYRT | 16% |
| 4′H12 PR4 (designed binder) EVVAATPTSLLISWRHPHFPTRYYRITYGETGGNSPVQEFTVPLQPPTATISGLKPGVDYTITVYAVTVAHNDHELLTPISINYRT | 17% |
| 4′B8 PR4 (designed binder) EVVAATPTSLLISWRHPHFPTRYYRITYGETGGNSPVQEFTVPLQPPTATISGLKPGVDYTITVYAVTVAQNDHKLFIPISINYRT | 20% |
| 4′D6 PR4 (designed binder) EVVAATPTSLLISWRHPHFPTRYYRITYGETGGNSPVQEFTVPLQPPTATISGLKPGVDYTITVYAVTMAQNDHELMTPISINYRT | 14% |
| 4B11 PR3 (designed binder) EVVAATPTSLLISWRHPHFPTRYYRITYGETGGNSPVQEFTVPLQPPTATISGLKPGVDYTITVYAVTVGQNNHELITPISINYRT | 15% |
| 4′A5 PR4 (designed binder) EVVAATPTSLLISWRHPHFPTRYYRITYGETGGNSPVQEFTVPLQPPTATISGLKPGVDYTITVYAVTLAQNDHELLTPISINYRT | 16% |
| 3′H9 PR4 (designed binder) EVVAATPTSLLISWRHPHFPTRYYRITYGETGGNSPVQEFTVPLQPPTATISGLKPGVDYTITVYAVTHGPYDQVLLTPISINYRT | 24% |
| 3′H8 PR4 (designed binder) EVVAATPTSLLISWRHPHFPTRYYRITYGETGGNSPVQEFTVPLQPPTATISGLKPGVDYTITVYAVTVGHNDRELITPISINYRT | 20% |
| 4′C5 PR4 (designed binder) EVVAATPTSLLISWRHPHFPTRYYRITYGETGGNSPVQEFTVPLQPPTATISGLKPGVDYTITVYAVTLGLNDHELITPISINYRT | 27% |
| 4′B7 PR4 (designed binder) EVVAATPTSLLISWRHPHFPTRYYRITYGETGGNSPVQEFTVPLQPPTATISGLKPGVDYTITVYAVTVAQNNHELLTPISINYRT | 16% |

Second part, the binder after the results:

| Binding to 1 nM KDR, % | Binder |
| --- | --- |
| 16% | 2′C6-PR4 (designed binder) VSDVPRDLEVVAATPTSLLISWRHPHFPTRYYRITYGETGGNSPVQEFTVPLQPPTATISGLKPGVDYTITVYAVTMGFMAHELMVPISINYRT |
| 22% | 2′D6-PR4 (designed binder) VSDVPRDLEVVAATPTSLLISWRHPHFPTRYYRITYGETGGNSPVQEFTVPLQPPTATISGLKPGVDYTITVYAVTVTHNGHPLMTPISINYRT |
| 22% | 3′H1 PR4 (designed binder) EVVAATPTSLLISWRHPHFPTRYYRITYGETGGNSPVQEFTVPLQPPTATISGLKPGVDYTITVYAVTFAQNDHQLFTPISINYRT |
| 25% | 4′B11 PR4 (designed binder) EVVAATPTSLLISWRHPHFPTRYYRITYGETGGNSPVQEFTVPLQPPTATISGLKPGVDYTITVYAVTMAHNDHELLTPISINYRT |
| 42% | 4′B3 PR4 (designed binder) EVVAATPTSLLISWRHPHFPTRYYRITYGETGGNSPVQEFTVPLQPPTATISGLKPGVDYTITVYAVTMAQNNRELLTPISINYRT |
| 29% | 4′H7 PR4 (designed binder) EVVAATPTSLLISWRHPHFPTRYYRITYGETGGNSPVQEFTVPLQPPTATISGLKPGVDYTITVYAVTLAHNDHELLTPISINYRT |
| 14% | 3′H10 PR4 (designed binder) EVVAATPTSLLISWRHPHFPTRYYRITYGETGGNSPVQEFTVPLQPPTATISGLKPGVDYTITVYAVTWAWNDHELMTPISINYRT |
| 18% | 4′H5 PR4 (designed binder) EVVAATPTSLLISWRHPHFPTRYYRITYGETGGNSPVQEFTVPLQPPTATISGLKPGVDYTITVYAVTLAQNGHELFTPISINYRT |
| 21% | 4′G12 PR4 (designed binder) EVVAATPTSLLISWRHPHFPTRYYRITYGETGGNSPVQEFTVPLQPPTATISGLKPGVDYTITVYAVTVAWNDHEIYTPISINYRT |
| 29% | 4′C9 PR4 (designed binder) EVVAATPTSLLISWRHPHFPTRYYRITYGETGGNSPVQEFTVPLQPPTATISGLKPGVDYTITVYAVTLGPNDHELMTPISINYRT |
| 17% | 4′E7 PR4 (designed binder) EVVAATPTSLLISWRHPHFPTRYYRITYGETGGNSPVQEFTVPLQPPTATISGLKPGVDYTITVYAVTWAQNDHELLTPISINYRT |
